Source: patent US10378034B2, “Use of a N-acetylneuraminate lyase derived from the bacterium Aliivibrio salmonicida in the production of neuraminic acid and derivatives thereof” (Universitetet i Tromsø-Norges Arktiske Universitet, priority 2014, dated 2019)

Assays:
[1] = Comparative specific activity, condensation reaction (TBA assay); format: biochemical
Method: Both the condensation and cleavage activities of NAL were assessed using the modified thiobarbituric acid (TBA) assay developed by Aminoff (1961) and Warren (1959). The condensation activity was determined by incubating 50 μl of a reaction mixture containing 15 mM sodium pyruvate, 15 mM ManNAc, 124 mM HEPES pH 8.0 and different concentrations of enzyme depending on assay type at selected temperatures for the required amount of time. The reaction was terminated by adding 137 μl 2.5 mg/ml sodium periodate in 57 mM H2SO4, followed by incubation at 37° C. for 15 min with shaking at 1350 rpm. Sodium arsenite (50 μl, 25 mg/ml sodium arsenite in 0.5 M HCl) was added resulting in brown color. The tubes were shaken manually until the brown color disappeared. 2-thiobarbituric acid solution (100 μl, 71 mg/ml adjusted to pH 9.0) was subsequently added, and the tubes were incubated in boiling water for 7.5 min. The tubes were incubated on ice for 5 min and allowed to remain at room temperature for 5 min. The red chromophore was extracted by addition of acidic butanol (1 ml of acidic butanol with 5% HCl) and horizontal shaking for 10 min. Tubes were centrifuged at 16060×g, 7 min (room temperature) to separate the organic and inorganic phases. The organic phase containing the red chromophore (200 μl) was used for measurement of absorbance at 549 nm in a spectrophotometer (SpectraMax M2e, Molecular Devices). The amount of Neu5Ac produced was inferred from a standard curve. To generate a standard curve, different concentrations of Neu5Ac (0.031 mM-1 mM) were treated with 137 μl of 2.5 mg/ml sodium periodate in 57 mM H2SO4 and the TBA assay procedure was followed as described above.
Standard reaction mixtures were incubated at room temperature for 1 h before being subjected to the TBA assay.

[2] = Thermofluor thermal denaturation; format: physicochemical
Method: Long term stability of AsNAL at different pH was studied by incubating the enzyme at pH values from 6.0 to 11.0 at room temperature for a month. Buffers used were Sodium phosphate (pH 6.0-7.0), HEPES (pH 7.0-8.0), Tris-HCl (pH 8.0-9.0) and glycine (pH 9.0-11.0). The enzyme activity in the condensation direction was measured using the standard reaction mixture incubated at room temperature for 1 h, with subsequent TBA assay. The stability of AsNAL at different pH was also studied using the thermofluor method described by Ericsson et al. (2006) where increased or decreased stability is related to the increase or decrease in the melting temperature of the protein. For the thermofluor assay, the protein was dialyzed overnight at 4° C. against a buffer containing 10 mM HEPES pH 7.5, 150 mM NaCl and 2 mM β-ME in Pierce Slide-A-Lyzer dialysis cassettes with a 3.5 kDa cutoff. The dialyzed protein was mixed with 2 μl of 300× Sypro® Orange protein gel stain (Sigma) and 100 mM of different buffers ranging from pH 5.0 to pH 9.0. Thermal shifts were screened for by heating in an iCycler iQ Real Time PCR Detection System (Bio-Rad Laboratories) from 1 to 80° C. in increments of 1° C./min. […]

[3] = TBA assay, condensation activity: pH and temperature profiles; format: biochemical
Method: Both the condensation and cleavage activities of NAL were assessed using the modified thiobarbituric acid (TBA) assay developed by Aminoff (1961) and Warren (1959). The condensation activity was determined by incubating 50 μl of a reaction mixture containing 15 mM sodium pyruvate, 15 mM ManNAc, 124 mM HEPES pH 8.0 and different concentrations of enzyme depending on assay type at selected temperatures for the required amount of time. The reaction was terminated by adding 137 μl 2.5 mg/ml sodium periodate in 57 mM H2SO4, followed by incubation at 37° C. for 15 min with shaking at 1350 rpm. Sodium arsenite (50 μl, 25 mg/ml sodium arsenite in 0.5 M HCl) was added resulting in brown color. The tubes were shaken manually until the brown color disappeared. 2-thiobarbituric acid solution (100 μl, 71 mg/ml adjusted to pH 9.0) was subsequently added, and the tubes were incubated in boiling water for 7.5 min. […] The organic phase containing the red chromophore (200 μl) was used for measurement of absorbance at 549 nm in a spectrophotometer (SpectraMax M2e, Molecular Devices). […]
pH profiles were determined by assaying the enzyme in triplicate for both condensation and cleavage directions at pH values ranging from 5.5 to 11.0 with 0.5 pH unit intervals. […] Temperature profiles were determined for both directions by assaying the enzyme in triplicate from 4 to 80° C. in HEPES buffer pH 8.0. […]

[4] = Temperature shift experiment on production yield of Neu5Ac; format: biochemical; settings: shifting reaction temperature from 23° C. to 4° C.; 50 mM pyruvate, 5 mM ManNAc
Method: The effect of substrate ratio on the conversion yield of Neu5Ac was studied by varying the pyruvate concentration while the concentration of ManNAc was kept constant. The pyruvate concentration ranged from 2.5 to 70 mM, whereas the ManNAc concentration was 5 mM, resulting in a pyruvate:ManNAc ratio ranging from 0.5 to 14. The condensation reaction mixture containing different ratios of pyruvate and ManNAc along with 124 mM HEPES buffer pH 8.0 and enzyme was incubated at room temperature for 7.5 h. […] Thus, a temperature shift experiment was carried out to see how much the Neu5Ac production could be increased by altering the equilibrium once it had been achieved. For a temperature shift experiment, the reaction mixture (enzyme, 50 mM pyruvate, 5 mM ManNAc, 124 mM HEPES buffer pH 8.0) was incubated at room temperature for 7.5 h and after reaching equilibrium it was shifted to 4° C. and incubated for 15 h. As a control, one reaction was kept at room temperature and another at 4° C. for all the time. The difference in yield between the temperature shifted and non-shifted reactions were calculated. The standard TBA assay was used to assess the activity.

B1: AsNAL: N-acetylneuraminate lyase isolated from the psychrophilic bacterium Aliivibrio salmonicida LFI1238, recombinantly expressed in E. coli (protein, listed as Aliivibrio salmonicida)
chain: MKKLTGLIAAPHTPFDSSSNVNFEEIDKIAKHLINDGVKGIYVCGTTGEGIHCSVEERKAIAERWVSACNHKLDIIVHTGALSIVDTLELTRHADTLDILATSAIGPCFFKPGSVSDLVEYCATIAAAAPSKGFYYYHSGMSGVNLNMEEFLIQADKRIPNLSGLKFNSGDLYEYQRCLRACDGKFDVPFGVDEFLPGALAVGAKSAVGSTYNYAAPHFNSIIEAFNKGDHDAVFNKMTNVIELIRVLVEFGGVAAGKIAMELHDINAGDPRLPLMPLSAEQKLTVVEKMRAANFLK
[1]; 4° C.
  specific activity of the condensation reaction, higher than EcNAL: 40%
[1]; 23° C.
  specific activity of the condensation reaction, higher than EcNAL: 60%
[1]; 37° C.
  specific activity of the condensation reaction, higher than EcNAL: 40%
[2]; 500 mM NaCl
  melting temperature (thermofluor): 76.9 °C
[2]; milli-Q water
  melting temperature (thermofluor): 73.15±0.21 °C
[3]; HEPES buffer pH 8.0, 30 min
  optimal temperature, condensation reaction: 20 °C
[3]; at 10° C., relative to highest value
  condensation activity retained: 75%
[4]
  increase in yield of Neu5Ac: 30%
